In patent publication US9932382B2, “Kv2.1 channel-derived peptides and methods of use” (University of Pittsburgh—Of the Commonwealth System of …, priority 2014, dated 2018):

Experiments:
[1] = biological target: T1, Kv2.1/syntaxin binding (Homo sapiens, UniProt Q16623); assay: Co-immunoprecipitation of Kv2.1 with syntaxin from transfected CHO cells; format: cell-based; conditions: for effect on Kv2.1/syntaxin binding (co-immunoprecipitation): syntaxin-expressing CHO cells co-transfected with Kv2.1 and peptide plasmid, syntaxin immunoprecipitates probed for Kv2.1
T1 construct: expressed in transfected cells; host or cells: CHO cells
Description: For electrophysiological experiments, mixed cortical neuronal/glial cultures were prepared from embryonic day 16 (E16) Sprague-Dawley rats (Charles River Laboratories, Wilmington, Mass., USA). Donor rats were euthanized by gradual CO2 exposure. Cortices were dissociated with trypsin, and the resultant cell suspension, adjusted to 670,000 cells per well, was plated on glass coverslips in 6-well plates as described previously (Hartnett et al., J Neurochem 68, 1836-1845, 1997). Non-neuronal cell proliferation was inhibited after two weeks in culture with 1-2 μM cytosine arabinoside, and cultures utilized at three to four weeks in vitro. For neuronal transfection, cells were treated for five hours in serum-free medium with 2 μL LIPOFECTAMINE™ 2000 (Invitrogen, Carlsbad, Calif.), 50 μL Optimem (GIBCO, Grand Island, N.Y.), and 1.5 μg DNA per well. For CHO cell transfections, cells were plated on coverslips in 24-well plates at a density of 5.6×10^4 cells per well for electrophysiological measurements or in 100 mm dishes at a density of 1.7×10^6 cells per dish for biochemical studies. Cells were treated for 3-4 hours in serum-free medium with a total of 1.2 μL LIPOFECTAMINE™ and 0.28 μg DNA per well for electrophysiology, or 55.1 μL LIPOFECTAMINE™ and 7.33 μg DNA per dish for biochemistry. Following transfection, cells were maintained in F12 medium containing fetal bovine serum at 37° C., 5% CO2 for 24 hours prior to experimentation.
Protein was harvested by washing cell culture dishes with ice cold PBS followed by a short incubation with 1% 3-[(3-cholamidopropyl) dimethylammonio]-1-propanesulfonate buffer. Protein A/G agarose bead slurry (Santa Cruz, Dallas, Tex.) was added to the samples and rocked at 4° C. for 1 hour in order to pre-clear non-specific protein binding. Samples were then incubated overnight at 4° C. with the appropriate immunoprecipitating antibodies. Following another incubation with the bead slurry, the protein samples were prepared/denatured by the addition of sample preparation buffer (625 mM Tris, 25% glycerol, 2% sodium dodecyl sulfate (SDS), 0.01% bromophenol blue and 5% β-mercaptoethanol) and heated at 95° C. for 5 min prior to SDS polyacrylamide gel electrophoresis and immunoblotting.
Protein samples from equal amounts of cell lysate were separated on 10% sodium dodecyl sulfate SDS polyacrylamide gels by electrophoresis using the Mini Protean 3 System (Bio-Rad, Hercules, Calif.). Separated protein bands were transferred onto 0.2 μm nitrocellulose membranes (Bio-Rad), blocked with 1% bovine serum albumin (BSA) in PBS with 0.05% Tween 20 (PBST) at room temperature for 1 hour, and probed with appropriate primary antibodies diluted in PBST. Blots were then incubated with infrared fluorescent goat secondary antibodies at room temperature for 1 hour, visualized using the Odyssey Imaging System (LI-COR Biosciences, Lincoln, Nebr.), and quantified using infrared fluorimetry.
After establishing that C1a effectively precluded the oxidant-induced K^+ current increase in neurons, studies were performed to identify the sub-domains within C1a that could retain the ability to disrupt Kv2.1/syntaxin binding. C1a was divided into overlapping proximal and distal segments, hereafter referred to as C1a411-472 and C1a441-522, respectively. Co-immunoprecipitation experiments were performed to compare the ability of C1a and the smaller segments to displace Kv2.1 from syntaxin. Syntaxin immunoprecipitates of protein samples obtained from CHO cells transfected with a syntaxin-expressing plasmid, and co-transfected with Kv2.1 together with C1a, C1a411-472, or C1a441-522, were probed for Kv2.1.

[2] = biological target: T2, human syntaxin (Homo sapiens, UniProt Q16623); assay: Far-Western analysis of syntaxin binding to SPOT peptide arrays; conditions: for syntaxin binding inferred from the overlapping peptide array: sequence deduced from or picked out of the 15-mer array, not spotted itself; for syntaxin binding to spotted peptide (fluorescence intensity): 15-mer peptides on PVDF membrane, human syntaxin over-expressing CHO cell lysate, four arrays
T2 construct: expressed in transfected cells; host or cells: CHO cells (lysate)
Description: FIG. 8: Binding of Kv2.1 peptides to syntaxin. The 76 overlapping Kv2.1 peptides were spot-plated as an array onto a polyvinylidene fluoride membrane using the SPOTS-synthesis method. Membranes were incubated with a human syntaxin over-expressing CHO cell lysate and a far-Western analysis of syntaxin binding to the peptide arrays was performed using a commercially available syntaxin antibody and fluorescently tagged secondary antibody. Fluorescence intensity was quantified as an index of syntaxin binding to the spot array. Bars represent the mean+/−SEM of binding in four independent arrays. […]

T1 sequence (Q16623 whole entry): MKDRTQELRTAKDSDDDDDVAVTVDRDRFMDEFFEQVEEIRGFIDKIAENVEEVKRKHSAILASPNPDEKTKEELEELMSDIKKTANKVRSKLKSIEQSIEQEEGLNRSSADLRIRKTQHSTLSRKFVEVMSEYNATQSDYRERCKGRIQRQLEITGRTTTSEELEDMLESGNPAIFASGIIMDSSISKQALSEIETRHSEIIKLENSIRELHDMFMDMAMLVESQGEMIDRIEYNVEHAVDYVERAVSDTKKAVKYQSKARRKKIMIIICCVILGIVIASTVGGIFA
T2 sequence (Q16623 whole entry): as above

In the case of “C1a441-472: overlapping middle segment of C1a, residues 441-472 of rat Kv2.1 (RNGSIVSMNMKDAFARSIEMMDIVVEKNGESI; UniProt P15387 441-472, looked up, fragment)”, the “mean±SEM ratio of Kv2.1 to syntaxin immunoblots” value ([1]; CHO cells, n=3, baseline=0.24±0.08) is reported as 0.25±0.1 and the “effect on Kv2.1/syntaxin binding (co-immunoprecipitation)” value [1] is reported as “had no effect on syntaxin's ability to bind to Kv2.1”.

For “DIVVEEKNGE (DIVVEKNGE; listed as Rattus norvegicus) [reference compound]”, the “syntaxin binding inferred from the overlapping peptide array” value [2] was “non-syntaxin-binding”.

In the case of HLSPNKWKW (listed as Rattus norvegicus), the “syntaxin binding inferred from the overlapping peptide array” value [2] is reported as “represents the syntaxin-binding domain”.

For “peptide #22: 15-mer, residues 472-486 of SEQ ID NO: 3 (DKVQDNHLSPNKWKW; listed as Rattus norvegicus)”, the “syntaxin binding to spotted peptide (fluorescence intensity)” value [2] was “initial peptide showing substantial binding”.

In the case of “peptide #28: 15-mer, residues 478-492 of SEQ ID NO: 3 (HLSPNKWKWTKRALS; listed as Rattus norvegicus)”, the “syntaxin binding to spotted peptide (fluorescence intensity)” value [2] is reported as “final peptide showing substantial binding”.

B1: C1a411-472: proximal segment of C1a, residues 411-472 of rat Kv2.1 (protein, UniProt P15387 411-472, looked up, fragment)
chain: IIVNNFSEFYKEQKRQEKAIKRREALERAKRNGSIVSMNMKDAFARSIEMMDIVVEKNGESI
For B1, the “effect on Kv2.1/syntaxin binding (co-immunoprecipitation)” value [1] was “did not”.
